Assay results from patent US20070225231A1.
Read-outs that look alike come from different tables or passages of the source. Positions of bridges follow the written chain, without caps; N, C: chain ends. No end group written: not given here.

What was measured:
human C1q (human) [1] = target: human C1q (human) (UniProt P02745); assay: reverse ELISA: PAP on C1q-coated plate, no inhibitor
histone (Sigma) [2] = assay: reverse ELISA: rabbit PAP on histone-coated plate, no inhibitor
[3] = target: myelin basic protein (MBP) (Sigma); assay: reverse ELISA: rabbit PAP on MBP-coated plate, no inhibitor
highly purified FcγIIa = highly purified FcγIIa (UniProt P12318); assay: reverse ELISA: PAP on FcγIIa-coated plate, no inhibitor
Sequence of highly purified FcγIIa (P12318 34-217 limits assumed): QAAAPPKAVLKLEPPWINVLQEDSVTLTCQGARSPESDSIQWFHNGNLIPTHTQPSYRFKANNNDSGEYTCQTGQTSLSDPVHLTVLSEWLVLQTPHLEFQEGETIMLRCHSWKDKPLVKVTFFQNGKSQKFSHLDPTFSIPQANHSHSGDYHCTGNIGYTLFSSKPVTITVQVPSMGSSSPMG

histone (Sigma) [4] = assay: reverse ELISA: IgG PAP binding to histones, no inhibitor
highly purified FcγIIb = highly purified FcγIIb (UniProt P31994); assay: reverse ELISA: PAP on FcγIIb-coated plate, no inhibitor
Sequence of highly purified FcγIIb (P31994 43-217 limits assumed): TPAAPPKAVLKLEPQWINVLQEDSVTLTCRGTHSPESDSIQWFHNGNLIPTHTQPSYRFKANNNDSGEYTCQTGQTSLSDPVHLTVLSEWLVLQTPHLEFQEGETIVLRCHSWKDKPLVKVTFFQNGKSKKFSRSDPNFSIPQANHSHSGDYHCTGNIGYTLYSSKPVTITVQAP

human C1q (human) [5] = target: human C1q (human) (UniProt P02745); assay: reverse ELISA: PAP on C1q-coated plate, no inhibitor; remark: listed apart in the source
highly purified FcγIII = assay: reverse ELISA: PAP on FcγIII-coated plate, no inhibitor
[6] = target: myelin basic protein (MBP) (Sigma); assay: reverse ELISA: IgG PAP binding to MBP, no inhibitor
[7] = target: whole human IgG4 (human) [IgG part: P01861]; assay: reverse ELISA: immune complexes on IgG4-coated plate, no inhibitor
Sequence of whole human IgG4 (human) [IgG part: P01861] (P01861 other isoform, or with tags, fused parts or gaps): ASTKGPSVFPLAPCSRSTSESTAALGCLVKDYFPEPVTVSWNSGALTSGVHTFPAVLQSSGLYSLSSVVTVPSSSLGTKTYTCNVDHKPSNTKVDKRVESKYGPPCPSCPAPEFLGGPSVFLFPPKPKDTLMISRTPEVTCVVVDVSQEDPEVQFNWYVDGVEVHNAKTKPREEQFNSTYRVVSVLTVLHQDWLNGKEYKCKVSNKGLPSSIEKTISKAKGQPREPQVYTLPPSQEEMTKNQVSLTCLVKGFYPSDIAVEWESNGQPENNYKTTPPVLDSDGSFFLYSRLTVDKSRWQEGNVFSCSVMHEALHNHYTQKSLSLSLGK

[8] = target: peroxidase-anti-peroxidase (PAP) immune complexes (UniProt P00433); assay: reverse ELISA: rabbit PAP pre-incubated with soluble histone; competitor: immobilised histone
Sequence of peroxidase-anti-peroxidase (PAP) immune complexes (UniProt P00433) (P00433 31-338, one chain of several): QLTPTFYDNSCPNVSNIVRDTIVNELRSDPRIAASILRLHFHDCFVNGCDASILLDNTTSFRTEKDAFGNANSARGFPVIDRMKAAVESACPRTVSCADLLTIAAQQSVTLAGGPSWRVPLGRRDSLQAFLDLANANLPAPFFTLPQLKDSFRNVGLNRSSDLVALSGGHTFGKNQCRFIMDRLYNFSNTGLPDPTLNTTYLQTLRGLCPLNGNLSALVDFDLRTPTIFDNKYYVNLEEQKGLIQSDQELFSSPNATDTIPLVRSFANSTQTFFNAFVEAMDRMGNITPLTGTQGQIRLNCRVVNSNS

[9] = target: peroxidase-anti-peroxidase (PAP) immune complexes (UniProt P00433); assay: reverse ELISA: rabbit PAP pre-incubated with soluble MBP; competitor: immobilised MBP
[10] = target: peroxidase-anti-peroxidase (PAP) immune complexes (UniProt P00433); assay: reverse ELISA: PAP pre-incubated with peptide; competitor: immobilised FcγIII
[11] = target: peroxidase-anti-peroxidase (PAP) immune complexes (UniProt P00433); assay: reverse ELISA: immune complexes with peptide; competitor: immobilised IgG4
[12] = target: peroxidase-anti-peroxidase (PAP) immune complexes (UniProt P00433); assay: reverse ELISA: rabbit PAP pre-incubated with peptide; competitor: immobilised MBP
[13] = target: peroxidase-anti-peroxidase (PAP) immune complexes (UniProt P00433); assay: reverse ELISA: PAP pre-incubated with peptide, then on C1q-coated plate; competitor: immobilised C1q
[14] = target: peroxidase-anti-peroxidase (PAP) immune complexes (UniProt P00433); assay: reverse ELISA: PAP pre-incubated with peptide; competitor: immobilised FcγIIa
[15] = target: peroxidase-anti-peroxidase (PAP) immune complexes (UniProt P00433); assay: reverse ELISA: rabbit PAP pre-incubated with peptide; competitor: immobilised histone
[16] = target: peroxidase-anti-peroxidase (PAP) immune complexes (UniProt P00433); assay: reverse ELISA: PAP pre-incubated with peptide; competitor: immobilised RF
[17] = target: peroxidase-anti-peroxidase (PAP) immune complexes (UniProt P00433); assay: reverse ELISA: PAP pre-incubated with peptide; competitor: immobilised FcγIIb
[18] = target: human monomeric IgG (Research Diagnostics); assay: RF test kit: peptide pre-incubated with human monomeric IgG, washed, then RF; competitor: RF
[19] = target: peroxidase-anti-peroxidase (PAP) immune complexes (UniProt P00433); assay: reverse ELISA: PAP pre-incubated with peptide; competitor: immobilised C1q
[20] = target: peroxidase-anti-peroxidase (PAP) immune complexes (UniProt P00433); assay: reverse ELISA: rabbit PAP pre-incubated with peptide; competitor: immobilised RF

Sequence of human C1q (human) (P02745 23-245 limits assumed, chain 1 of 3): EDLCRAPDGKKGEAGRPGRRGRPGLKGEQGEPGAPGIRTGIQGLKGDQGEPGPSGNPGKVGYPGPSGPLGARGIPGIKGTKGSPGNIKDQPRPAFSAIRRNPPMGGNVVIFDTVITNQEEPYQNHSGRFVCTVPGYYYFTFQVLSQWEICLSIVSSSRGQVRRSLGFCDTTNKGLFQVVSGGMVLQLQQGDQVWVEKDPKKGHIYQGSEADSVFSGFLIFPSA
Sequence of human C1q (human) (P02746 28-253 limits assumed, chain 2 of 3, further chain): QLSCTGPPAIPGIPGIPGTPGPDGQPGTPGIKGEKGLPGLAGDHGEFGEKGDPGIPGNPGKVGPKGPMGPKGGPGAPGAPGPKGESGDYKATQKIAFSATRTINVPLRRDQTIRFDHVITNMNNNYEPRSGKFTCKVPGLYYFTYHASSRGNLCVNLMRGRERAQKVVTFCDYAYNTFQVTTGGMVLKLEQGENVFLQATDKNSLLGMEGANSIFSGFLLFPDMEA
Sequence of human C1q (human) (P02747 29-245 limits assumed, chain 3 of 3, further chain): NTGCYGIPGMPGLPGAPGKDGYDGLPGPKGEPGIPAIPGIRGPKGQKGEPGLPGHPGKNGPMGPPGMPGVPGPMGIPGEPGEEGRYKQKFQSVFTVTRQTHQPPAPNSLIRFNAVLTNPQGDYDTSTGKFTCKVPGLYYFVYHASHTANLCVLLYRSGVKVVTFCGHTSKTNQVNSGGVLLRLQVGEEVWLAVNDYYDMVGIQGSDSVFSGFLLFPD

Row | OD 450 nm [10] [OD] | OD 405 nm [11] [OD] | OD 405 nm [12] [OD] | OD 405 nm [13] [OD] | OD 450 nm [14] [OD] | OD 405 nm [15] [OD] | OD 405 nm [16] [OD] | OD 450 nm [17] [OD] | OD 405 nm [18] [OD] | Molecule | also measured
1 |  |  |  |  |  |  |  |  |  | peroxidase-anti-peroxidase (PAP) immune complexes (from UniProt P00433 31-338) | OD 405 nm (human C1q (human) [1]): 2.35 OD; OD 405 nm (histone (Sigma) [2]): 1.27 OD; OD 405 nm [3]: 1.03 OD; OD 405 nm (highly purified FcγIIa): 1.6 OD; OD 450 nm (highly purified FcγIIa): 3.6 OD; OD 405 nm (histone (Sigma) [4]): 2.11 OD; OD 405 nm (highly purified FcγIIb): 1.39 OD; OD 450 nm (highly purified FcγIIb): 3.6 OD; OD 405 nm (human C1q (human) [5]): 0.467 OD; OD 405 nm (highly purified FcγIII): 1.59 OD; OD 450 nm (highly purified FcγIII): 3.6 OD; OD 405 nm [6]: 2.34 OD; OD 405 nm [7]: 0.716 OD
2 |  |  |  |  |  |  |  |  |  | histone (Sigma) | OD 405 nm [8]: 0.057 OD
3 |  |  |  |  |  |  |  |  |  | myelin basic protein (MBP) (Sigma) | OD 405 nm [9]: 0.139 OD
4 | 1.6 | 0.129 | 0.489 | 0.205 | 1.15 | 0.444 | 0.106 | 1.21 | 1.32 | PCARHLGELVWCT (disulfide 2-12 (inferred)) [… (SEQ ID NO:41)] | 
5 | 2.53 | 0.096 | 0.473 | 0.193 | 2.54 | 0.363 | 0.109 | 1.95 | 1.23 | DCARHLGELVWCT (disulfide 2-12 (inferred)) [… (SEQ ID NO:4)] | 
6 |  |  |  |  |  |  |  |  | 0.962 | DCAFHLGELVWCT (cyclized by a disulfide bond between the two cysteine residues) [… (SEQ ID NO:3)] | OD 405 nm [10]: 0.81 OD; OD 405 nm [14]: 0.66 OD; OD 405 nm [19]: 0.859 OD; OD 405 nm [17]: 0.51 OD; OD 405 nm [20]: 0.267 OD
7 | 2.41 |  |  | 0.458 | 2.43 |  |  | 2.26 | 1.42 | DCAAHLGELAACT (cyclized by a disulfide bond between the two cysteine residues) [… (SEQ ID NO:40)] | 
8 | 3.5 | 0.191 | 0.569 | 0.247 | 3.4 | 0.359 | 0.152 | 3.28 | 1.31 | RCARHLGELVWCT (disulfide 2-12 (inferred)) [… (SEQ ID NO:5)] | 
9 |  | 0.107 |  |  |  |  |  |  |  | APPDCARHLGELVWCT (cyclized by a disulfide bond between the two cysteine residues) [… (printed in Table 8 with SEQ ID NO:14)] | 
10 | 1.34 | 0.557 | 0.706 |  | 1.48 | 0.729 | 0.622 | 1.07 | 1.4 | DCAWHLGELAACT (cyclized by a disulfide bond between the two cysteine residues) [… (SEQ ID NO:42)] | 
